Numbering of substitutions follows the chain as printed. Names may count otherwise.
B1: Cep192 C-terminus fragment (2070-2537 aa), GFP-tagged (domain or fragment, UniProt Q8TEP8-3 2070-2537, looked up)
chain: REFLQPSSKASLESTSDLGASGKHGGNVSLDVLPVKGPQGSPLLSRAARPPLDQLASEEPWTVLPEHLILVAPSPCDMAKTGRFQIVNNSVRLLRFELCWPAHCLTVTPQHGCVAPESKLQILVSPNSSLSTKQSMFPWSGLIYIHCDDGQKKIVKVQIREDLTQVELLTRLTSKPFGILSPVSEPSVSHLVKPMTKPPSTKVEIRNKSITFPTTEPGETSESCLELENHGTTDVKWHLSSLAPPYVKGVDESGDVFRATYAAFRCSPISGLLESHGIQKVSITFLPRGRGDYAQFWDVECHPLKEPHMKHTLRFQLSGQSIEAENEPENACLSTDSLIKIDHLVKPRRQAVSEASARIPEQLDVTARGVYAPEDVYRFRPTSVGESRTLKVNLRNNSFITHSLKFLSPREPFYVKHSKYSLRAQHYINMPVQFKPKSAGKFEALLVIQTDEGKSIAIRLIGEALGKN
notes: Cep192 residues 2070-2537 (ASH6, ASH7, ASH8 and the IDRs between them); also called C-terminal Cep192; Cep192 C-terminal fragment; source: purified (Ni-NTA, gel filtration)
B2: TRIM37 (enzyme, UniProt O94972 1-964, looked up)
chain: MDEQSVESIAEVFRCFICMEKLRDARLCPHCSKLCCFSCIRRWLTEQRAQCPHCRAPLQLRELVNCRWAEEVTQQLDTLQLCSLTKHEENEKDKCENHHEKLSVFCWTCKKCICHQCALWGGMHGGHTFKPLAEIYEQHVTKVNEEVAKLRRRLMELISLVQEVERNVEAVRNAKDERVREIRNAVEMMIARLDTQLKNKLITLMGQKTSLTQETELLESLLQEVEHQLRSCSKSELISKSSEILMMFQQVHRKPMASFVTTPVPPDFTSELVPSYDSATFVLENFSTLRQRADPVYSPPLQVSGLCWRLKVYPDGNGVVRGYYLSVFLELSAGLPETSKYEYRVEMVHQSCNDPTKNIIREFASDFEVGECWGYNRFFRLDLLANEGYLNPQNDTVILRFQVRSPTFFQKSRDQHWYITQLEAAQTSYIQQINNLKERLTIELSRTQKSRDLSPPDNHLSPQNDDALETRAKKSACSDMLLEGGPTTASVREAKEDEEDEEKIQNEDYHHELSDGDLDLDLVYEDEVNQLDGSSSSASSTATSNTEENDIDEETMSGENDVEYNNMELEEGELMEDAAAAGPAGSSHGYVGSSSRISRRTHLCSAATSSLLDIDPLILIHLLDLKDRSSIENLWGLQPRPPASLLQPTASYSRKDKDQRKQQAMWRVPSDLKMLKRLKTQMAEVRCMKTDVKNTLSEIKSSSAASGDMQTSLFSADQAALAACGTENSGRLQDLGMELLAKSSVANCYIRNSTNKKSNSPKPARSSVAGSLSLRRAVDPGENSRSKGDCQTLSEGSPGSSQSGSRHSSPRALIHGSIGDILPKTEDRQCKALDSDAVVVAVFSGLPAVEKRRKMVTLGANAKGGHLEGLQMTDLENNSETGELQPVLPEGASAAPEEGMSSDSDIECDTENEEQEEHTSVGGFHDSFMVMTQPPDEDTHSSFPDGEQIGPEDLSFNTDENSGR
notes: TRIM37, E3 ubiquitin ligase; 459-964; The co-immunoprecipitation methods say only 'TRIM37 (1 ug)', the same amount as the Abcam protein of the ubiquitination assay; also called purified TRIM37; source: bought: Abcam ab269066
B3: TRIM37(C18R) (enzyme, UniProt O94972 1-964, looked up)
chain: B2 chain with C18R
notes: TRIM37 with C18R; cross-links are reported from the N-terminus (a.a. 1-458) and the tail (a.a. 459-964); source: purified

Legend:
[1] = target: GFP-Cep192(IDR+ASH8); experiment: pull-down; supernatant depletion: 30 nM TRIM37 with a range of GFP-Cep192(IDR+ASH8) concentrations and GFP-Trap magnetic particles, 25 mM HEPES pH 7.4, 150 mM KCl, 1 mM DTT, 1 hr at room temperature; unbound TRIM37 in the supernatant by Western blot; one phase association fit
[2] = target: Centrobin peptide motif (Homo sapiens) (UniProt Q8N137); details: cited from earlier work
[3] = target: B2; experiment: pull-down; purified GFP fusion (1 uM) incubated with TRIM37 (1 ug) 1 hr at 37°C, precipitated with GFP-Trap magnetic particles; washes 150 mM KCl, 25 mM HEPES, 1% glycerol, 0.05% NP-40, last wash 500 mM KCl; Western blot against TRIM37; details: both partners purified
[4] = target: T1, full-length Cep192 tagged with GFP (UniProt Q8TEP8-3 1-2537); experiment: as above; details: both partners purified
T1 construct: Cep192, full length (2537 aa by the printed range 2070-2537); MW with GFP = 307 kDa; also called GFP-Cep192; source: baculovirus-infected SF9 insect cells, purified (Ni-NTA, gel filtration)

[5] = target: the molecule itself; experiment: cross-linking; XL-MS: 5 uM TRIM37(C18R) and 5 uM IDR+ASH8, 100 nM ZnCl2, 25 mM HEPES, 150 mM KCl pH 7.4, 20 min at 37°C, 1 mM DSSO 5 min; band of the complex cut from SDS-PAGE; calculated FDR <1%

Question: Which Kd [1] does the source give for TRIM37 (from UniProt O94972 1-964) here?
Answer: 0.075 µM

Question: Which Kd [2] does the source give for TRIM37 MATH (from UniProt O94972) here?
Answer: 14 µM

Question: Does B1 bind [3]?
Answer: binds

Question: Does B2 bind [4]?
Answer: binds

Question: Does B3 bind [5]?
Answer: binds
